Reference: publication PMC11431768, “Mechanistic Insights into Substrate Recognition of Human Nucleoside Diphosphate Kinase C Based on Nucleotide-Induced Structural Changes” (International Journal of Molecular Sciences, 2024)

Tests used:
[1] = target: the molecule itself; experiment: SEC-MALS; SEC-RI-MALS; Superdex 200 5/150; samples at 60 to 600 µM; gel filtration buffer (20 mM Tris-HCl, 300 mM NaCl, 5 mM MgCl2, DTT); 0.3 mL/min; RI at 25 °C
[2] = target: the molecule itself; experiment: mass photometry; His-tagged NDPK-C directly after affinity purification

Row | Protein | stoichiometry N [1] | stoichiometry N [2]
1 | human nucleoside diphosphate kinase C, N-terminally truncated (residues Thr18–Glu169), untagged (enzyme, UniProt Q13232 18-169, looked up, human NDPK-C (nme3 gene product), residues Thr18-Glu169 of UniProt Q13232; The forward primer puts a start codon (Met) before Thr18; The results speak of a 156-residue subunit, while Thr18-Glu169 is 152 residues; The extra residues are probably what TEV cleavage leaves of the tag plus the Met; also called NDPK-C; NDPK isoform C; source: E. coli BL21 (DE3), purified (HisTrap, SEC, TEV cleavage, …)) TGAHERTFLAVKPDGVQRRLVGEIVRRFERKGFKLVALKLVQASEELLREHYAELRERPFYGRLVKYMASGPVVAMVWQGLDVVRTSRALIGATNPADAPPGTIRGDFCIEVGKNLIHGSDSVESARREIALWFRADELLCWEDSAGHWLYE | 6 | –
2 | His-tagged human NDPK-C (residues Thr18–Glu169) (enzyme, UniProt Q13232 18-169, looked up, human NDPK-C (nme3 gene product), residues Thr18-Glu169 of UniProt Q13232; the expression plasmid encodes a 173 amino acid polypeptide including the N-terminal TEV-cleavable His-tag; 173 residues in all; also called His-NDPK-C; His-tagged NDPK-C; not shown: His6, N-terminal, kept) TGAHERTFLAVKPDGVQRRLVGEIVRRFERKGFKLVALKLVQASEELLREHYAELRERPFYGRLVKYMASGPVVAMVWQGLDVVRTSRALIGATNPADAPPGTIRGDFCIEVGKNLIHGSDSVESARREIALWFRADELLCWEDSAGHWLYE | – | 6
